The target of data set [1] is complement factor D (fD) (UniProt P00746). Nature of the data set: inhibition. As to conditions: non-specific control oligo.
Data set [2] shares this target. In words: flow. As to conditions: 2'-F G, 2'-OMe A, C, U, apparent Kd of pool, SB1T, 37 C.
Data set [3] deals with casein. In words: FP filter. As to conditions: specificity control; 100 nM DNA, 20 uM casein.
Data set [4] concerns the target complement factor D (fD) (UniProt P00746). Nature of the data set: FP filter. As to conditions: 100 nM DNA, 5 uM fD.

Chain of complement factor D (fD) (P00746 26-253): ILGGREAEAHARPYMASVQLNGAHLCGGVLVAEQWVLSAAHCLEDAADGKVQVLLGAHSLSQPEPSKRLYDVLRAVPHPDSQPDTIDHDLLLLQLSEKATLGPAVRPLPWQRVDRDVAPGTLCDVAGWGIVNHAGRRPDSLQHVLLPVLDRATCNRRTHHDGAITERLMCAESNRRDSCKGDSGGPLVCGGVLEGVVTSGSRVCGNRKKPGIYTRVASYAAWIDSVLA

In data set [1] (alternative-pathway hemolysis), C8 non-specific control oligo returned a 50% inhibitory concentration (IC50) of over 160 nM. Further, the activity in data set [1] (fD esterase assay) is 105 % activity.

Turning to “GGGAGUGUGUACGAGGCAUUAGGCCGCCNNNNNNNNNNNNNNNNNNNNNNNNNNNNNNGGCGGCUUUGAUACUUGAUCGCCCUAGAAGC [N30S selection round 6 pool]”, the Kd in data set [2] came out at 34.4 nM.

Take “GGGAGUGUGUACGAGGCAUUAGGCCGCCNNNNNNNNNNNNNNNNNNNNNNNNNNNNNNGGCGGCUUUGAUACUUGAUCGCCCUAGAAGC [N30S selection round 7 pool]”: the Kd in data set [2] (competed by anti-fD Fab AFD) amounted to 45.1 nM.

With “GGGAGUGUGUACGAGGCAUUAGGCCGCCNNNNNNNNNNNNNNNNNNNNNNNNNNNNNNGGCGGCUUUGAUACUUGAUCGCCCUAGAAGC [N30S selection round 8 pool]”, the Kd in data set [2] (competed by anti-fD Fab AFD) was 8.8 nM.

For “GTGACGACTGACATATCTGCAAAAGTTAGATTGACATGGTATGCACCGTCTGAGGTTGGTCGTAGTTGAGTCTGAGTGCT [Aptamer 12 (rank 9)]”, in data set [3], the binding signal was 0.6 % bound.

“GTGACGACTGACATATCTGCCCTATAGGGGTGTGGGCGAGGGGTGGGTGGTAGGGCGGCTCGTAGTTGAGTCTGAGTGCT [Aptamer 10 (rank 7)]”: the binding signal in data set [3] is 0.2 % bound.

“GTGACGACTGACATATCTGCGGCGGTTGGGGTCGAAGGGCGAGGGGTGGGAGGTCGCCGTAGTTGAGTCTGAGTGCT [Aptamer 7 (rank 4)]”: the binding signal in data set [3] is 0.1 % bound.

For the substance “GTGACGACTGACATATCTGCGGGCGTCTGAGCGCATGGATGACCCACCGACAGATTGCGGCGTAGTTGAGTCTGAGTGCT [Aptamer 27 (rank 24)]”, in data set [3], the binding signal was 0.6 % bound.

For the substance “GTGACGACTGACATATCTGCGTTTGGGGTTGGGGCCTGGGAGTTTGGGGAGCAGAAAGGACGTAGTTGAGTCTGAGTGCT [Aptamer 5 (rank 2)]”, the binding signal in data set [3] is 0.5 % bound.

In data set [4] (round 9 pool), “GTGACGACTGACATATCTGCNNNNNNNNNNNNNNNNNNNNNNNNNNNNNNNNNNNNNNNNCGTAGTTGAGTCTGAGTGCT [DNA selection round 9 pool]” came in with a binding signal of 14.6 % bound.

On to “GTGACGACTGACATATCTGCNNNNNNNNNNNNNNNNNNNNNNNNNNNNNNNNNNNNNNNNCGTAGTTGAGTCTGAGTGCT [naive N40 DNA library]”, for which the binding signal was determined as 0.5 % bound in data set [3], 3.6 % bound in data set [4] (naive library background) and 0.88 % bound in data set [4] (round 0 library).

In data set [3], “GTGACGACTGACATATCTGCTATTTTGGGGCCTGGGTGTTGGGGATTGGGGACTATGTGTCGTAGTTGAGTCTGAGTGCT [Aptamer 8 (rank 5)]” showed a binding signal of 0.3 % bound.

In data set [3], “GTGACGACTGACATATCTGCTCCGAGGTTATTGGGGTTGGGGCCTGGGCGATTGGGGCCTCGTAGTTGAGTCTGAGTGCT [Aptamer 4 (rank 1)]” yielded a binding signal of 0.5 % bound.

“GTGACGACTGACATATCTGCTGCTTCCAGCGGTCATGATATGCACTGTCTGAAGCTCGGTCGTAGTTGAGTCTGAGTGCT [Aptamer 15 (rank 12)]”: in data set [3], the binding signal is 0.2 % bound.

Values taken from patent US20180051287.
